Changes are numbered by the printed parent chain. Each block holds one binder with its values, some of them ahead of it.
Columns and labels:
CD20 [1] = target: T1, CD20 (UniProt P11836 1-297, limits assumed); test: FACS on CD20+ Ramos cells (FIG. 12 legend)
T1 construct: whole, on cells; also called CD20 on CD20+ Ramos cells; antigen
T1 sequence (looked up): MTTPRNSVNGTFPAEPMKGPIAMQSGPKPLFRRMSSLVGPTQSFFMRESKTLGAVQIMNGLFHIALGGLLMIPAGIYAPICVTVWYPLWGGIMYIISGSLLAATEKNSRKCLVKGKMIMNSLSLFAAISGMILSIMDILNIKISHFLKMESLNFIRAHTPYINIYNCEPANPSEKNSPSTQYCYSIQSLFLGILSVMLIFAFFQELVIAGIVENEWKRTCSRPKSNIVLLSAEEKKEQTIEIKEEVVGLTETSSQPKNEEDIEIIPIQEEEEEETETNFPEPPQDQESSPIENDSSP
Experimental: (§1) The specific binding to CD20 was detected by using CD20+ Ramos cell (ATCC) and T lymphocyte leukemia Jurkat cell (ATCC). Cells were incubated with various concentration of antibodies for 1 hour at 4° C. After washing with PBS for 3 times, 1:100 diluted FITC labeled anti-human Fc γ specific second antibody (The Jakson Laboratory) was added and incubated for 1 h at 4° C. After washing with PBS for three times, specific binding was analyzed by FACS instrument.

CD20 [2] = target: T1, CD20; test: FACS on CD20+ Ramos cells, FITC anti-human Fc gamma second antibody
Experimental: as §1

B1: humanized anti-CD20 antibody 1635 (antibody, human IgG1, V domains shown)
VH: QVQLVQSGAEVKKPGASVKVSCKASGYTFTSYNMHWVRQAPGKGLEWIGAIYPGNGDTSYNQKFKGRVTITADKSTSTAYMELSSLRSEDTAVYYCARSTYYGGDWYFNVWGQGTTVTVSS
VL: DVVMTQSPAFLSVTPGEKVTITCRASSSVSYIHWFQQKPGKAPKPLIYATSNLASGVPSRFSGSGSGTDFTLTINSLEAEDAATYYCQQWTSNPPTFGGGTKVEIK
binding result (CD20 [1]): binds

B2: humanized anti-CD20 antibody 3637 (antibody, human IgG1, V domains shown)
VH: B1 VH with N33T, G56S, S59N, Y107N, N109E
VL: B1 VL with N93K
notes: CDR-optimized variant (hVH-2 / hVK-2)
binding result (CD20 [1]): binds

B3: humanized anti-CD20 antibody 1634 (antibody, human IgG1, V domains shown)
VH: B1 VH
VL: B1 VL with P45S
binding result (CD20 [2]): binds

The next lines start with the values.

binding result (CD20 [2]): binds
B4: humanized anti-CD20 antibody 1534 (antibody, human IgG1, V domains shown)
VH: B1 VH with A40P, K74E
VL: B1 VL with P45S

binding result (CD20 [2]): binds
B5: humanized anti-CD20 antibody 1535 (antibody, human IgG1, V domains shown)
VH: B1 VH with A40P, K74E
VL: B1 VL

Reference: patent publication US20130089540A1 (BIOEX THERAPEUTICS, published 2013)
